Laboratory results published in the nanobody polyreactivity screen of Harvey et al. (2022).

Experiment: yeast display, Sf9 membrane polyspecificity reagent, FACS + sequencing; frameworks hold sequencing errors
Method in brief: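 Galactose-induced (36–48 hours) yeast carrying a synthetic nanobody display library were exposed to 10% biotinylated, detergent-solubilized Sf9 membrane reagent at 4 °C for 1 hour. FACS followed streptavidin microbead enrichment, using low and high (top ~1%) gates for expression (anti-HA) and reagent binding (streptavidin). Colony PCR, MiSeq 2 × 250 sequencing and CDR-length filtering followed. Labels for polyreactivity reflect the gate of origin.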

QVQLVESGGGLVQAGGSLRLSCAASGITFGNYAMGWYRQAPGKARELVAAITGSGGRTYYADSVKGRFTISRDNANNTVYLQMNRLKPEYTAVYYCNRRQYGRKKQYDYWGQGTQVTVSS
polyreactivity (PSR sort gate): high polyreactivity

QLQLVESGGGLVQAGGSLRLSCAASGRTFQIYAMGWYRQAPVNERELVARITGVGSTNYADSVKGRFTISRDNAKNTVYLQMNSLKPEDTAVYYCNKRDGNWEYDYWGQGTQVTVSS
polyreactivity (PSR sort gate): low polyreactivity

QVQLVESGGGLVQAGGSLRLSCAASGSTFGKYAMGWYRQAPGKERELVAAITESDSSTYYADSVKGRFTLSRDNAKNTVYLQMNSLKPEDTAVDYCAADSLYSYPWSTYFYGGDYWGQGTQVTVSS
polyreactivity (PSR sort gate): low polyreactivity

QVQLVESGGGLVQAGGSLRLSCAASGFTFDRYAMGWYRQAPGKERELVAAISWRGGSTYYADSVKGRFTISRDNAKNTDYLQMNSLKPEDTAVYYCNKGTRHTTAGTPRYDYWGQGTQVTVSS
polyreactivity (PSR sort gate): high polyreactivity

QVQRVESGGGLVQAGGSLRISCAASGLIFYRYAMGRYRQAPGKERELVAAISKRGTSTYYADSVKGRFTISRDNAKNTVYLQMNSLKPEDTAVYYCAADVQEEYDYWGLGTQVTVSS
polyreactivity (PSR sort gate): high polyreactivity

QVHLVESGGGLVQAGGSLRLSCAASGLIFGGYAMGWDRQAPGKERELVAAISSNSGSTYYADSVKGRFTISRDNAKNTVYLQMNSLKPEDTAVYYCIRYFYQGFDYWGQGTQVTVSS
polyreactivity (PSR sort gate): high polyreactivity

QVQLVESGGGLVQAGGSLRLSCAASGFTFGGYAMGWYRQAPGKERELVAAISRSGGSTSYADSVKGRFTISRDNAKNTVYLQMNSLKPEDTAVYYCATLWTTKYWGQGTQVTVSS
polyreactivity (PSR sort gate): high polyreactivity

HVQLQESGGGLVQAGGSLRLSCAASGSIFQATYMGWYRQAPGKEREFVASITYGSITNYADSVKGRFTIGRDNAKDTLYLQMNSLKPEDTAVYYCAVDRHYIPDFHYWGQGTQVTVSS
polyreactivity (PSR sort gate): low polyreactivity

QVQLVESGGGLVQAGGSLRLSCAASGITFEHYAMGWYREAPGKERELVAAINRSGDNTYYADSVKGRFTISRDNAKNTVYLQMNSLKPEDTAVNYCNTVELYWRGYDYWGQGTQVTVSS
polyreactivity (PSR sort gate): high polyreactivity

QVQLVESGGGLVQAGGSLRLSCAASGIILTPNAMGWYRQAPGTERELVAAIDWRDGITYYADSVKGRFTISRDNAKNTVYLQMNSLKPEDTAVYYCAATFSRGYDYWGQGTQVTVSS
polyreactivity (PSR sort gate): high polyreactivity

QVQLVESGGGLVQAGGSLRLSCAASGRIFSAYAMGWYRQAPGKERELVAAISKRGGRTYYADSVKGRFTISRDNAKNTVYLQMNSLKPEDTAVYYCNKRYHDGHELDYWGQGTQVTVSS
polyreactivity (PSR sort gate): high polyreactivity

QVQLVESGGGLVQAGGSLRLSCAASGRIFGFYAMGWYRQAPGKERELVARITLSGGRTYYADSVKGRFTISRDNAKNTVYLQMNSLKPEDTAVYYCAAVSYSKRTWSMNYWGQGTQVTVSS
polyreactivity (PSR sort gate): high polyreactivity

QFQLVESGGGLVQAGGSLRLSCAASGIIDGNARGWYRQAPGKEREFVATISVNDGNTYYADSVKGRFTISRDNAKNTVYLQMNSLKPEDTAVSYCATPTVYVPIPDLGDYWGQGTQVTVSS
polyreactivity (PSR sort gate): low polyreactivity

QVQLVESGGGLVQAGGSLRLSCAASGYISSYNPMGWSRQAPGKERELVASITRGGSTYYADSVKGRFTISRDNAKNTVYLQMNSLKPEDTAVYYCAADTLRQYDYEYWGQGTQVTVSS
polyreactivity (PSR sort gate): high polyreactivity

QVQLVESGGGLVQAGGSLRLSCAASGRTFPAYAMGWYRQAPRKERELVARISYSGGNTYYADSVKGRFTISRDNAKNTVYLQMNSLKPEDTAVYYCAATRSHYPYRSGGDYWGQGTQVTVSS
polyreactivity (PSR sort gate): low polyreactivity

QVQLVESGGGLVQAGGSLRLSCAASGRTSYVYAMGWYRQAPGKERELVAAITSSGASTYYADSVKGRFTISRDNAKNTVYLQMNSLKPEDTAVFYCAAETYPVWGVAFYYWGQGTQVTVSS
polyreactivity (PSR sort gate): high polyreactivity

QVQLVESGGGLVQAGGSHRLSCAASGSTFDTYPMGWYRQEPGKERELVAAISRSGTSTYYADSVKGRFTISRDNAKNTVYLQMKSLKPEDTAVYYCAAYGPRVNGEIGREYYYWGQGTQVTVSS
polyreactivity (PSR sort gate): low polyreactivity

QVQLVESGGGLVQAGGSLRLSCAASGFTFAGYAMGWYRQAPGKERELVAAISWRGGSTYYADSVKGRFTISRDNAKNTVYLQMNSLKPEDTAVYYCAAASRKRTSREPLDYWGQGTQVTVSS
polyreactivity (PSR sort gate): high polyreactivity

QVQLVESGGGLVQAGGSLRLSCAASGRTFGYYAMGWYRQAPGKERELVAAINSRGGSTYYADSVKGRFTISRDNAKNTVYLQMNSLKPEDTAVYYCAVVRWRQYIFATYDYWGQGTQVTVSS
polyreactivity (PSR sort gate): high polyreactivity

QVQHVESGGGLVQAGGSLRLRCAASGFTFRRYALGWYRQAPGKERELVAAISGSGGSTYYADSVKGRFTISRDKAKNTVYLQMNSLKPEDTAVYYCNALLRAIAEYDYWGQGTQVTVSS
polyreactivity (PSR sort gate): high polyreactivity

QVQLVESGGGLVQAGGSLRLSCAASGSTSKGYAMGGYRQAPGKDRELVAAISAGGGRTYYADSVKGRFTISRENAKNTVYLQMNSLKPEDTAVYYCANAGTIYQSPREYWGQGTQVTVSS
polyreactivity (PSR sort gate): high polyreactivity

QVQLVESGGGLVQAGGSLRLSCAASGGTFGSYAMGWYRQAPAKERELVAAIRSGDRTYYADSVKGRFTISRDNAKNTDYLQMNSLKPEHTAVDYCAAFYHHYYRYDYWGQGTQVTVSS
polyreactivity (PSR sort gate): low polyreactivity

QVQLVESGGGLVQAGGSLRLSCPASGFTFVSYAMGWYRQAPGKERELVAAISRSGGTTYYADSVKGRFTISRDNAKNTVYLQMNSLKPEDTAVYYCAADFYVFYTRYYYWGQGTQVTVSS
polyreactivity (PSR sort gate): low polyreactivity

QFQLVESGGGLVQAGGSLRLSCAASGRIFYPYAMGWYRQATGKEREFVATIRARGGDSTSYADSVKGRFTISRDNAKNTVYLQMNSLKPEDTGVYYCAALFYTYRWRYYVYHLDYWGHGTQVTVSS
polyreactivity (PSR sort gate): low polyreactivity

QVQLVESGGGLVQAGCSLRLSCAASGRTIGYYAMGLYRPAPGKERELVAAISTRGGRTSYADSVKGRFTISRDNAKYTVYFQMNSLKPEDTAVYYCAADGVRVHKDPTGHYYWGQGTQVTVSS
polyreactivity (PSR sort gate): high polyreactivity

QVQLVESGGGLVQAGGSLRLSCAASGRIFSRNAMGWYIQAPGKERELVAAISRSGTSTYYADSVKGRFTISRDNAKYTVYLQMNSLKPEDTAVYYCAADYPAVISIRRYDYWGQGTQVTVSS
polyreactivity (PSR sort gate): low polyreactivity

QVQLVESGGGLVQAGGSLRLSCAASGYTFGTYTMGWYRQAPGKERELVAGIDSGGTTNYADSVKGRFTISRDNAKNTVYLKMNRVKPEDTAVYYCTAYHLLIVDYYLGMYYYGGNYYWGQGNQVTVSS
polyreactivity (PSR sort gate): low polyreactivity

QVQLVESAGGLVQAGGSLSLSCAASGSMFNKYAMGWYRQAPGKERELVAAISVSGTRTYYADSVKGRFTISRDNAKNTVYLQMNSLKPEDTAVYYCATKFFRTAYEYWGQGTQVTVSS
polyreactivity (PSR sort gate): high polyreactivity

QVQIVESGGGLVQAGGSLRLSCAASGRISEANAMGRYRQATWKERELVAAIDFSDGSTYYADSVKGRFTISRDNAKNTVYLQMNSLKPEDTAVYYCAADDQYYPYDYWGLGTQVTVSS
polyreactivity (PSR sort gate): low polyreactivity

QVQLVESGGGLVQAGGSLRLSCAASGSTFQTYAMGWYRQAPGKERELVAAITYGGSTNYADSVKGRFTMSRANAKNTVYLLMNSLKPEDTAVYYCAARDGDQRPRLRYDYWAQGTQVTVSS
polyreactivity (PSR sort gate): low polyreactivity

QVQLVESRGGLVQAGGSLRLSCAASGSIFGWYAMGWYRPAPGKERELVAAINWSGGRTYYADSVKGRFTISRDNAKNTVYLQMNRLKPEDTAVYYCNKVVPGYSAPKYDYWGQGTQVTVSS
polyreactivity (PSR sort gate): high polyreactivity

QVQLVESGGGLVQAGVSLRLSCAASGSIIWVYAMGWYRQAPGNERELVAAITSGVSTYYADSVKGRFTISRDNAKNTVYFQMNSLKPEETAVYYCAVVGGFRWIRMEYWGQGTQVTVSS
polyreactivity (PSR sort gate): low polyreactivity
